Tests used:
[1] = target: human serum albumin (Homo sapiens, UniProt P02768); details: class in words (Low, Mid, High); Table 5
Procedure: For SPR analysis, the free Cysteine of the 2D DARPins was capped with Iodoacetamide (IAM). A surface plasmon resonance (SPR) assay was then used to determine the binding kinetics of the three 2D DARPins to human or mouse serum albumin. Various concentrations of 2D DARPins starting from 2000 nM were applied to immobilized human serum albumin (HSA) or mouse serum albumin (MSA) for on-rate and off-rate measurements.
The data were generated using a BioRad ProteOn instrument with SPR running buffer (PBS, pH 7.4 containing 0.05% Tween 20®). A HC200M chip (Xantec) was conditioned according to the manufacturer's protocol. The chip was coated with purified human serum albumin (HSA, CSL) or mouse serum albumin (MSA, Sigma-Aldrich) in NaOAc pH5.0 to reach a signal intensity of ˜380 (HSA) or ˜630 (MSA) RU for the analysis of Intermediate HSA affinity 2D DARPin and High HSA affinity 2D DARPin; ˜1125 (HSA) or ˜1965 (MSA) for the analysis of Low HSA affinity 2D DARPin. All analytes (3-fold dilution ranging from 2000-24.69 nM) were injected in succession for 240 s (50 μl/min) and dissociation was recorded for 600 s (50 μl/min). The data was double referenced (control spot and buffer injection) and fitted to a 1:1 Langmuir model. The obtained SPR traces were used to determine binding parameters.

[2] = Dose response finding (tolerability) in WT CD1 mice
Excerpt: Animals were under observation daily and 3× per week animals were weighed. […] The data were expressed as % of body weight (BW) change (relative to the initial BW −7 day before the treatment).
Animals were under observation daily and 3× per week animals were weighed. […] The data were expressed as % of body weight (BW) change (relative to the BW seven days before the treatment, i.e. the initial BW at day −7) (average+/−SEM).

[3] = system: NCI-H82 tumors; experiment: Efficacy (tumor growth) in NCI-H82 tumor model; type: in vivo, mouse; details: for Mean Diff.: Dunnett's multiple comparisons test, tumor volume in mm^3, NCI-H82, R2G2 mice
Procedure: To determine the efficacy of radio-labelled (Pb-212) DARPin (MAM279) conjugate in inhibiting the growth of tumors that express DLL3, different dose regimens (single or repeated dose) of the conjugate were tested in a relevant mouse tumor model (NCI-H82).
Animals were under observation daily and 3× per week tumors were measured by caliper. Animals were sacrificed when tumors reached 1500 to 2000 mm^3 or if termination criteria were met. The data were expressed as average+/−SEM of tumor volume in mm^3.
To determine the efficacy of more frequent repeat-dosing of radio-labelled (Pb-212) DARPin (MAM279) conjugate in inhibiting the growth of tumors that express DLL3, a weekly repeat-dosing regimen of the conjugate was tested in a relevant mouse tumor model (NCI-H82).
Corresponding injections of buffer only were done as control. The first weekly injection of radio-labeled molecules was done 14 days after xenografting the NCI-H82 cells. Animals were under observation daily and 3× per week tumors were measured by caliper. Animals were sacrificed when tumors reached 1500 to 2000 mm^3 or if termination criteria were met. The data were expressed as average+/−SEM of tumor volume in mm^3. Results are shown in FIGS. 20A to 20D and Table 23.

[4] = target: T1, Human DLL3-ECD (Homo sapiens, UniProt Q9NYJ7); experiment: SPR binding to human DLL3-ECD (Example 11); details: immobilized biotinylated target, 1:1 Langmuir, Tables 14, 15
T1 construct: human DLL3 protein (Q9NYJ7, Gene ID: 10683, residues 27 to 466) linked via an Avi-tag; 3C protease recognition site (C); Fc knob into hole (C); purchased Evitria; host or cells: CHO cells
T1 sequence (Q9NYJ7 27-466): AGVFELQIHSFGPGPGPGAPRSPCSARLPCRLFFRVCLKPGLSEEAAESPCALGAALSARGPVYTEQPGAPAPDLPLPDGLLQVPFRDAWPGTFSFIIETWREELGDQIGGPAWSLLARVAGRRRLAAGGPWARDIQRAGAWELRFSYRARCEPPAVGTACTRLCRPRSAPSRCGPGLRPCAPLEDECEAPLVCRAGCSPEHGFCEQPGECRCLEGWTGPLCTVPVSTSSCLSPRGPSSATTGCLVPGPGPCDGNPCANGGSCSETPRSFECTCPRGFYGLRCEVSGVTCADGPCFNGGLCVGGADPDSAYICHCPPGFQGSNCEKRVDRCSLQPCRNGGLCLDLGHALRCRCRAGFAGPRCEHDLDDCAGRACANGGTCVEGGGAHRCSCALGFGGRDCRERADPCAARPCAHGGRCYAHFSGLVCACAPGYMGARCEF
Excerpt: Two target formats were chosen: i) the first target protein consisted of the extracellular domain of human DLL3 protein (Q9NYJ7, Gene ID: 10683, residues 27 to 466) linked via an Avi-tag (for site-directed biotinylation), followed by a 3C protease recognition site, to a Fc knob into hole (hDLL3-Avi-Fckih); ii) the second target protein consisted of a very similar design including more residues of the extracellular domain of DLL3 (Q9NYJ7, Gene ID: 10683, res 27-470), directly linked to the Fc knob into hole domain followed by an Avi-tag (hDLL3-Fckih-Avi).
hDLL3-Avi-Fckih was expressed in CHO cells (Chinese hamster ovary cells) by Evitria and purified by a protein A derivative-based affinity chromatography followed by preparative size-exclusion chromatography (SEC). The material was up-concentrated in PBS pH 7.4 to 0.69 mg/ml and in vitro biotinylated using recombinant BirA. The final material was monomeric on size exclusion and stored in PBS pH 7.4 at the final concentration of 0.35 mg/ml.
The binding of 2D ankyrin repeat protein MAM279 as well as of MAM279 conjugated to the chelator DOTAM (the conjugation was performed as described in Example 3) to different target proteins was analyzed by Surface Plasmon Resonance (SPR). Specifically, the proteins analyzed were (i) MAM279 (SEQ ID NO: 11), with a Glycine-Serine (GS) at its N-terminal end and an N-terminal His-tag (SEQ ID NO: 19); and (ii) MAM279 (SEQ ID NO: 11), with a Glycine-Serine (GS) at its N-terminal end and a tag (SEQ ID NO: 10) at its C-terminal end (resulting in GS-MAM279-tag (SEQ ID NO: 15)), conjugated to the chelator DOTAM as described in Example 3.
A surface plasmon resonance (SPR) assay was used to determine the binding kinetics of the two proteins (i.e. MAM279 with and without conjugation to chelator) to different targets: the Extra-Cellular Domain (ECD) of human DLL3, the ECD of cynomolgus monkey DLL3, the N-Terminal Domain (NTD) only of human DLL3, and the NTD dog DLL3. The data were generated using BioRad ProteOn instrument in SPR running buffer (PBS, pH 7.4 containing 0.005% Tween 20©). […] The chip was coated with biotinylated target to reach a signal intensity of 1516 RU (human ECD), 257 RU (human NTD), 1500 RU (cyno ECD) and 228 RU (dog NTD). All analytes (various concentrations in 3-fold dilutions ranging from 500-6.17 nM) were injected in succession for 240 s (100 μl/min) and dissociation was recorded for 10800 s (100 μl/min). Each injection was followed by a regeneration step with 16 mM H3PO4 for 18 s. […] The obtained SPR traces were used to determine on-rate and off-rate interaction parameters.

B1: MAM160: Two domain (2D) ankyrin repeat protein: serum albumin-specific domain (SEQ ID NO: 7), PT linker, DLL3-specific domain MAM120 (protein)
chain: DLGKKLLEAARAGQDDEVRELLKAGADVNAKDYFSHTPLHLAARNGHLKIVEVLLKAGADVNAKDFAGKTPLHLAADAGHLEIVEVLLKAGADVNAQDIFGKTPADIAADAGHEDIAEVLQKAAGSPTPTPTTPTPTPTTPTPTPTGSDLGTKLLSAAADGQDDEVRELLQAGADVNAKDLFGYTPLHLAAWRGHLEIVEVLLEAGADVNAKDAAGLTPLHLAAWFGHLEIVEVLLEAGADVNAQDVQGVTPADLAAKEGHEDIAEVLQQAA
modifications: Ankyrin repeat protein (MAM160)
HSA affinity [1]: High

B2: MAM279 conjugate: SEQ ID NO: 15 conjugated to DOTAM-maleimide, labelled with Pb-212 (natural lead in PK studies) (conjugate)
chain: GSDLGKKLLEAARAGQDDEVRELLKAGADVNAKDYFSHTPLHLAARNGHLKIVEVLLKAGADVNAKDFAGKTPLHLAADAGHLEIVEVLLKAGADVNAQDIFGKTPADIAADAGHEDIAEVLQKAAGSPTPTPTTPTPTPTTPTPTPTGSDLGKKLLAAAAQGQDDEVRELLKAGANVNAKDLFGYTPLHLAAWRGHLEIVEVLLKAGADVNAKDAAGETPLHLAAWFGHLEIVEVLLKAGADVNAQDLQGKTPADLAAKEGHEDIAEVLQKAAGSGSC
modifications: DOTAM-maleimide, Pb-212 label; Ankyrin repeat protein with tag (GS-MAM279-tag)
appearance of animals ([2]; Pb-212 labelled conjugate injected once at 10 μCi, 20 μCi and 30 μCi i.v., WT CD1 mice): animals appeared healthy and active
body weight (BW) change ([2]; Pb-212 labelled conjugate injected once at 10 μCi, 20 μCi and 30 μCi, WT CD1 mice, recovered within up to about 10 days): Minimal weight loss
toxicity ([2]; Pb-212 labelled conjugate, injected dose of 60 μCi, WT CD1 mice): Toxicity was observed
hematology profile (white blood cells, lymphocytes, monocytes, neutrophils) ([2]; within up to 28 days after injection of 10 μCi, 20 μCi and 30 μCi doses (data not shown)): complete recovery
Mean Diff. ([3]; Buffer only vs. (4 × 10μCi, 1 wk)): 731.9
Mean Diff. ([3]; Buffer vs. conjugate (1 × 10μCi)): 140.6
Mean Diff. ([3]; Buffer vs. conjugate (4 × 10μCi, injections 2 weeks apart)): 429.7
efficacy in inhibiting the growth of NCI-H82 tumors ([3]; Pb-212 labelled conjugate, 1×10 μCi or 4×10 μCi (2 weeks apart), in words): good efficacy
potency versus benchmark antibody (Rova) conjugate ([3]; both at 4×10 μCi, NCI-H82 tumors, in words): more potent than the benchmark antibody (Rova) conjugate
complete tumor regression ([3]; four times weekly at 10 μCi, NCI-H82, day 63 post-tumor cell xenograft): about 70 % of mice
efficacy in inhibiting the growth of NCI-H82 tumors ([3]; injected four times weekly at 10 μCi, in words): strong and statistically significant efficacy

B3: MAM279-DOTAM: GS-MAM279-tag (SEQ ID NO: 15) conjugated to the chelator DOTAM via C-terminal tag and maleimide connector, no radionuclide (conjugate)
chain: B2 chain
modifications: DOTAM chelator via maleimide on C-terminal tag; Ankyrin repeat protein with tag (GS-MAM279-tag)
Koff Human DLL3-ECD [4]: 1.64e-05 s⁻¹
Kon Human DLL3-ECD [4]: 67400 M⁻¹ s⁻¹

B4: MAM279: Two domain (2D) ankyrin repeat protein: serum albumin-specific domain (SEQ ID NO: 7), PT linker, DLL3-specific domain of MAM093 (protein)
chain: DLGKKLLEAARAGQDDEVRELLKAGADVNAKDYFSHTPLHLAARNGHLKIVEVLLKAGADVNAKDFAGKTPLHLAADAGHLEIVEVLLKAGADVNAQDIFGKTPADIAADAGHEDIAEVLQKAAGSPTPTPTTPTPTPTTPTPTPTGSDLGKKLLAAAAQGQDDEVRELLKAGANVNAKDLFGYTPLHLAAWRGHLEIVEVLLKAGADVNAKDAAGETPLHLAAWFGHLEIVEVLLKAGADVNAQDLQGKTPADLAAKEGHEDIAEVLQKAA
modifications: Ankyrin repeat protein (MAM279)
Kd [4]: 0.174 nM
Koff Human DLL3-ECD [4]: 1.45e-05 s⁻¹
Kon Human DLL3-ECD [4]: 83500 M⁻¹ s⁻¹

Source: patent US20250332297A1, “DLL3-SPECIFIC BINDING CONSTRUCTS AND THEIR USE IN RADIOTHERAPY” (MOLECULAR PARTNERS AG, priority 2024, published 2025)
